B1: SynBP01-Fc (Fc fusion)
chain: IEVKDVTDTTALITWSPPSVLVGYTIELTYGIKDVPGDRTTIDLTEDENQYSIGNLKPDTEYEVSLISVTEFGRRRSKETFTT
notes: Chimeric fusion made in 293EBNA cells from pOE-SynBP01; Called bivalent; also called SynBP01 scaffold fused to an Fc region; not shown: CH2 and CH3 domains of IgG1 Fc from the pOE-Fc vector
B2: 5E5 (designed binder)
chain: IEVKDVTDTTALITWSLAPGYRLGCELTYGIKDVPGDRTTIDLTEDENQYSIGNLKPDTEYEVSLICVKLCMRGNPAKETFTT
notes: also called TRAIL-R2 specific clone 5E5
B3: 8B3 (designed binder)
chain: IEVKDVTDTTALITWSPPEYAFYYTGCELTYGIKDVPGDRTTIDLTEDENQYSIGNLKPDTEYEVSLICVKNCGLFSNPAKETFTT
B4: 6F11 (designed binder)
chain: IEVKDVTDTTALITWSPSVARMLETGCELTYGIKDVPGDRTTIDLTEDENQYSIGNLKPDTEYEVSLICITLCGRGVSKETFTT
B5: 2H6 (designed binder)
chain: IEVKDVTDTTALITWATPSVFDSHIEGCELTYGIKDVPGDRTTIDLTEDENQYSIGNLKPDTEYEVSLICWKHHGDAWSKETFTT
B6: 6C7 (designed binder)
chain: IEVKDVTDTTALITWAKPMSCSGYIQGCELTYGIKDVPGDRTTIDLTEDENQYSIGNLKPDTEYEVSLICAKLTGWLCSKETFTT
notes: Lower case q is a TAG codon read as glutamine
B7: 7G11 (designed binder)
chain: IEVKDVTDTTALITWAKPSIVNGFISGCELTYGIKDVPGDRTTIDLTEDENQYSIGNLKPDTEYEVSLICDKCFGAMKSKETFTT
B8: 10D9 (designed binder)
chain: IEVKDVTDTTALITWSPPLFCCQKTGCELTYGIKDVPGDRTTIDLTEDENQYSIGNLKPDTEYEVSLICFKLTGFLYSKETFTT
notes: Lower case q in the BC loop is a TAG codon read as glutamine in the suppressor strain
B9: 2F4 (designed binder)
chain: IEVKDVTDTTALITWSPCIMVCLRTGCELTYGIKDVPGDRTTIDLTEDENQYSIGNLKPDTEYEVSLICRRGDMSGAPAKETFTT
B10: 5B10 (designed binder)
chain: B9 chain with I19L, M20F
B11: D1-Cκ/D1-IGHG1 (other)
light: IEVKDVTDTTALITWSPGERIWMFTGCELTYGIKDVPGDRTTIDLTEDENQYSIGNLKPDTEYEVSLICPNYERISNPAKETFTTGGGTPT
heavy: B11 light
notes: Control two chain tetravalent construct of D1; not shown: human C-kappa region (constant region of an antibody kappa light chain); heavy chain constant region of human IgG1 (IGHG1)
B12: D1-Fc (Fc fusion)
chain: IEVKDVTDTTALITWSPGERIWMFTGCELTYGIKDVPGDRTTIDLTEDENQYSIGNLKPDTEYEVSLICPNYERISNPAKETFTTGA
notes: not shown: hinge and Fc region of human IgG1
B13: SynBP01 (designed binder)
chain: AAIEVKDVTDTTALITWSPPSVLVGYTIELTYGIKDVPGDRTTIDLTEDENQYSIGNLKPDTEYEVSLISVTEFGRRRSKETFTTGGGTLEHHHHHH
notes: also called SYNAGIS® specific Tn3 scaffold
B14: 2D3 (designed binder)
chain: IEVKDVTDTTALITWSPGGFQKITTGCELTYGIKDVPGDRTTIDLVNRRNHYSIGNLKPDTEYEVSLICLTYKARAISKETFTT
B15: 2G03 (designed binder)
chain: IEVKDVTDTTALITWSPGPLLRHTTGCELTYGIKDVPGDRTTIDLRPIPRAYSIGNLKPDTEYEVSLICRNRPQQSNPAKETFTT
B16: 2A11 (designed binder)
chain: IEVKDVTDTTALITWSPPFRAGHVTGCELTYGIKDVPGDRTTIDLVTARCQYSIGNLKPDTEYEVSLICTTGNGLRSNPAKETFTT
B17: 1B04 (designed binder)
chain: IEVKDVTDTTALITWSPSHGVESSTGCELTYGIKDVPGDRTTIDLHGLQRVYSIGNLKPDTEYEVSLICAKICGHLVSKETFTT
B18: 1C06 (designed binder)
chain: IEVKDVTDTTALITWSPRMYTWIQTGCELTYGIKDVPGDRTTIDLTHLSGSYSIGNLKPDTEYEVSLICLKLTRTHISKETFTT
B19: 2F02 (designed binder)
chain: IEVKDVTDTTALITWSPSRGGTSLTGCELTYGIKDVPGDRTTIDLDQVRATYSIGNLKPDTEYEVSLICHTNSGQPSNPAKETFTT
B20: 1A03 (designed binder)
chain: IEVKDVTDTTALITWAPPPFSNSCIIGCELTYGIKDVPGDRTTIDLRPGRASYSIGNLKPDTEYEVSLICSTGTGLPSNPAKETFTT
B21: 1B12 (designed binder)
chain: IEVKDVTDTTALITWAKPRQGGSNISGCELTYGIKDVPGDRTTIDLYHKGLHYSIGNLKPDTEYEVSLICPKMTGYTYSKETFTT
B22: 3B11 (designed binder)
chain: IEVKDVTDTTALITWSPCQLLALITGCELTYGIKDVPGDRTTIDLNSRHYHYSIGNLKPDTEYEVSLICYTSTGQRSNPAKETFTT
B23: 1H05 (designed binder)
chain: IEVKDVTDTTALITWSPGMFDQVRTGCELTYGIKDVPGDRTTIDLGKYWERYSIGNLKPDTEYEVSLICRNQYGQHQSKETFTT
B24: 2B04 (designed binder)
chain: IEVKDVTDTTALITWAPPMLTDSEINGCELTYGIKDVPGDRTTIDLTSSYWSYSIGNLKPDTEYEVSLICSTLRRNAISKETFTT
notes: also called 2B4
B25: 1C12 (designed binder)
chain: IEVKDVTDTTALITWAKPEKWDGSIYGCELTYGIKDVPGDRTTIDLNSRHTAYSIGNLKPDTEYEVSLICFTPYGAKSNPAKETFTT
notes: also called monomeric 1C12
B26: 2F08 (designed binder)
chain: IEVKDVTDTTALITWSHAGGIRIGCELTYGIKDVPGDRTTIDLHVWQVYYSIGNLKPDTEYEVSLICMTPYLLGNPAKETFTT
B27: 1E05 (designed binder)
chain: IEVKDVTDTTALITWSPCSPCQLVTGCELTYGIKDVPGDRTTIDLSCTRAKYSIGNLKPDTEYEVSLICINKLGDTSNPAKETFTT
B28: 1D8 (designed binder)
chain: IEVKDVTDTTALITWSPCQMLSSLTGCELTYGIKDVPGDRTTIDLNIERPKYSIGNLKPDTEYEVSLICFTMTGYRSNPAKETFTT
B29: 2A12 (designed binder)
chain: IEVKDVTDTTALITWSPCCQEFTLTGCELTYGIKDVPGDRTTIDLHNHHHHYSIGNLKPDTEYEVSLICITDAGNKSNPAKETFTT
B30: 1G11 (designed binder)
chain: IEVKDVTDTTALITWSWAQANPGGCELTYGIKDVPGDRTTIDLWHSITFYSIGNLKPDTEYEVSLICKTKVQSSNPAKETFTT
B31: 1C10 (designed binder)
chain: IEVKDVTDTTALITWSPCCPYDRYTGCELTYGIKDVPGDRTTIDLQSSRSHYSIGNLKPDTEYEVSLICITTFGHVSNPAKETFTT
B32: 1E03 (designed binder)
chain: IEVKDVTDTTALITWAAPFFGSSYISGCELTYGIKDVPGDRTTIDLHYYVTRYSIGNLKPDTEYEVSLICVNLSGHMPSKETFTT
notes: also called 1E3

Substitutions are numbered along the chain they refer to.

The target of one experiment is SYNAGIS®. Put plainly: SPR (BIAcore 3000), SYNAGIS® immobilized, both injected at 1 µM.
SYNAGIS®, sequence (VH, as listed by the source, chain 1 of 2): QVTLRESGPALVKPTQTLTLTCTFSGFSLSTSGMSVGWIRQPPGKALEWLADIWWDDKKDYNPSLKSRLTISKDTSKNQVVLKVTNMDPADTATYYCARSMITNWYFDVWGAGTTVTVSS
SYNAGIS®, sequence (VL, as listed by the source, chain 2 of 2): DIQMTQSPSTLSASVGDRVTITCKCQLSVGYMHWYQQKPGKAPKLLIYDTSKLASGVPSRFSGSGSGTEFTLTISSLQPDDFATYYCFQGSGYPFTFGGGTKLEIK
For the molecule B1, the “fold increase in total response units compared to SynBP01” value is roughly 6 fold.

In a further experiment the target is T1, TRAIL-R2/Fc fusion protein (R & D Systems) (UniProt O14763 54-182, limits assumed).
T1 construct: not shown: Fc part of the bought fusion; captured with anti-human IgG Fc antibody
T1 sequence (O14763 54-182 limits assumed): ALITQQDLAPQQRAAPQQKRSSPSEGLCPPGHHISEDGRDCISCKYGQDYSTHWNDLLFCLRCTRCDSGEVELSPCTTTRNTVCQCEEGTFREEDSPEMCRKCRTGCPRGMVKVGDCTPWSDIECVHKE
The experiment is described as follows: SPR (BIAcore), TRAIL-R2/Fc captured on goat anti-human-Fc IgG, 5E5 injected; from kon and koff. The protocol: Goat anti-human-Fc IgG was immobilized at a density of ˜7700 RUs onto a flow cell of a CM5 Biacore sensor chip surfaces using a standard amino coupling protocol (BIAcore, Inc.). Separately, a blank surface was also prepared on the same chip using the identical coupling protocol, minus the protein. This blank surface was used as a reference cell throughout the experiment, and served to correct for both non-specific binding and certain housekeeping artifacts.
After baseline stabilization, solutions of the Tn3 clone 5E5 (Table 7) were injected over both the captured ligand and control surfaces. Between injections, the Fc-capture surface was regenerated with two 1 min. injections of 10 mM Gly, pH2.
Several buffer and control protein injections were also interspersed throughout the injection series. Later, these buffer injections were used, along with the reference cell data, to correct the raw data sets for injection artifacts and/or non-specific ‘binding’ through a technique commonly referred to as “double-referencing.” (Myszka, D. G. (1999) J. Mol. Recognit. 12, pp. 279-284). Sensorgram overlays of the fully corrected data were generated using the BIAevaluation 4.1 software (BIAcore, Inc, Uppsala, Sweden). The affinity of 5E5 for binding to TRAIL-R2 was calculated by measuring the kₒₙ and koff.values in the BIAevaluation software for the sensorgram shown in FIG. 13.
(Surface plasmon resonance follows binding to a sensor surface in real time, without labels.)
In the case of B2, the Kd was roughly 0.7 µM.

In another experiment the target is T1, TRAIL-R2/Fc fusion protein (R & D …). The experiment is described as follows: TRAIL-R2 phage ELISA. A general note: An ELISA detects its analyte on a solid surface through an enzyme-linked reagent.
For B3, the binding result is given as “binds”.
For the molecule B4, the binding result is “binds”.
Turning to B5, the binding result is reported as “binds”.
Turning to B6, the binding result is reported as “binds”.
With B7, the binding result is reported as “binds”.
Consider B8, for which the binding result is “binds”.
Turning to B9, the binding result is “binds”.
In the case of B10, the binding result was “binds”.

The next experiment has the same target. The experiment is described as follows: Attana biosensor, TRAIL-R2 chip. As to the method: A qualitative comparison of binding by monomeric 1C12, 1C12-Fc and 1C12-Cκ/1C12-IGHG1 proteins was performed by injecting samples of each of these proteins over a TRAIL-R2 chip on an Attana biosensor instrument.
Regarding B11, the binding result is “no binding”.
With B12, the binding result was “no binding”.

A further experiment deals with SYNAGIS®. The experiment is described as follows: SPR (BIAcore 3000), SYNAGIS® amine-coupled to the chip, equilibrium binding of SynBP01.
Molecule B13 showed an equilibrium dissociation constant (Kd) of 16 µM.

The next experiment deals with T1, TRAIL-R2/Fc fusion protein (R & D …). Put plainly: TRAIL-R2 phage ELISA. This is another data set of the same source.
Take B14: the binding result was “binds”.
As for B15, the binding result is listed as “binds”.
For the molecule B16, the binding result is on record as “binds”.
Regarding B17, the binding result is “binds”.
On the same count and under the same terms, to B18 belongs “binds”.
In the case of B19, the binding result is on record as “binds”.
With B20, the binding result is “binds”.
For B21, the binding result is reported as “binds”.
For the molecule B22, the binding result is listed as “binds”.
In the case of B23, the binding result is “binds”.
B24: the binding result is “binds”.
Turning to B25, the binding result was “binds”.
As for B26, the binding result is given as “binds”.
Turning to B27, the binding result is “binds”.
Turning to B28, the binding result is “binds”.
The same measure, in the same setting: for B29 the value was “binds”.
B30: the binding result is “binds”.
Regarding B31, the binding result is “binds”.
The same measure, in the same setting: for B32 the value was “binds”.

Usually Kd stands for the free concentration of one partner at which half of the binding sites on the other are occupied at equilibrium, for simple one-to-one binding. Higher therefore signals a looser complex.
